The Kd is a measure of binding affinity in units of concentration. A high value points to weaker binding. A word on the koff: it is a measure of how fast the partners let go of each other. Higher therefore signals a short-lived complex. What is called kon is the second-order rate constant of association.

Data on 4 molecules can be found in patent US20200207874A1 (Hoffmann-La Roche, published 2020).

“And” between values parts separate entries of the source, which are not always exact repeats. Equal entries are not always repeated.

One test deals with T1, streptavidin (SA) (UniProt P22629 37-163, limits assumed).
T1 construct: Injected at 250 nM as effector moiety to probe the biotin of the 75mer ss-L-DNA linker
As to the kind of experiment: SPR (BIAcore 3000), streptavidin injected over 2C4-FAB'-ss-L-DNA bound to captured huFc chimera HER2 ECD. An excerpt:
The BIAcore assay setup comprised the following (see also FIG. 6): A polyclonal goat anti human IgG-Fc gamma antibody was immobilized on the BIAcore CM5 sensor and serves as a capture system for the huFc chimera HER2 ECD.
The FAB fragments have a calculated molecular weight of 57 kDa, each. […] Streptavidin is the effector moiety.
On the technique in general: SPR reads the build-up and loss of mass on a sensor chip optically.

In test [1] the target is T2, IGF-1R(1340-1366)[1346-pTyr]amid (phosphotyrosine at 1346; C-terminal amide).
T2 construct: also called pIGF-1R peptide (free in solution); phosphorylated IGF-1R peptide
T2 peptide: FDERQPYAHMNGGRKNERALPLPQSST
Put plainly: SPR (BIAcore 3000, SA sensor, 25 C): ss-FABs hybridized on the biotinylated T40-Bi 77-mer ss-DNA linker on the surface; peptide as analyte in solution. As for the experimental part: (§1) A BIAcore 3000 instrument (GE Healthcare) was used with a BIAcore SA sensor mounted into the system at T=25° C. The system was preconditioned at 100 μl/min with 3×1 min injection of 1 M NaCl in 50 mM NaOH and 1 min 10 mM HCl.
(§2) 124 RU amino-PEO-biotin were captured on the reference flow cell 1. […] As a control, buffer was injected instead of the ss-Fabs.
(§3) The dissociation was monitored at 50 μl/min for 5.3 min. The system was regenerated after each concentration step with a 12 sec pulse of 250 mM NaOH and was reloaded with ss-FAB ligand.

Test [2] has as its target T3, IGF-1R(1340-1366)amid (C-terminal amide).
T3 construct: also called IGF-1R peptide (free in solution); non-phosphorylated IGF-1R peptide
T3 peptide: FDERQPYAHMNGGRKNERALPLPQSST
Described as above. The protocol:
as §1, §2, §3

Test [3] deals with T2, IGF-1R(1340-1366)[1346-pTyr]amid. As to the kind of experiment: SPR (BIAcore 3000), complex on SA sensor, peptide in solution. The protocol: as §1, §2, §3
Test [4] has the same target. As to the kind of experiment: SPR (BIAcore 3000, SA sensor, 25 C): single ss-FAB hybridized on the biotinylated T40-Bi 77-mer ss-DNA linker on the surface; peptide as analyte in solution. The protocol:
as §1, §2, §3

For test [5], the target named is T4, INR(1355-1382)[1361-pTyr]amid (human, phosphotyrosine at 1361; C-terminal amide).
T4 construct: also called pINR peptide; phosphorylated insulin receptor peptide (free in solution)
T4 peptide: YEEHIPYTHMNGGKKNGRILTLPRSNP
The description is as above. As for the experimental part: as §1, §2, §3

The target in test [6] is T3, IGF-1R(1340-1366)amid. The test is described as above. As for the experimental part:
as §1, §2, §3

For test [7], the target named is T5, IGF-1R(1340-1366)[1346-pTyr; Glu(Bi-PEG-1340]amid (not fully specified; phosphotyrosine at 1346; PEG linker with biotin on the glutamic acid at position 1340; C-terminal amide).
T5 construct: also called pIGF-1R peptide (biotinylated); phosphorylated IGF-1R peptide
T5 peptide: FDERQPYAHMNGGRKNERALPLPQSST
As to the kind of experiment: SPR (BIAcore 2000), biotinylated peptide on SA sensor, 100 nM analyte.

Test [8] deals with T6, IGF-1R(1340-1366); Glu(Bi-PEG-1340]amid (not fully specified; PEG linker with biotin on the glutamic acid at position 1340; C-terminal amide).
T6 construct: also called IGF-1R peptide (biotinylated, non-phosphorylated)
T6 peptide: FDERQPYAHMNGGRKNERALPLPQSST
The test is described as above.

The target in test [9] is T7, hInsR(1355-1382)[1361-pTyr; Glu(Bi-PEG-1355]amid (human, not fully specified; phosphotyrosine at 1361; PEG linker with biotin on the glutamic acid at position 1355; C-terminal amide).
T7 construct: also called pIR peptide; IR (phosphorylated insulin receptor) peptide (biotinylated)
T7 peptide: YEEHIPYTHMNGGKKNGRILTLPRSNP
Put plainly: SPR (BIAcore 2000), biotinylated peptide on SA sensor.

Test [10] concerns the target T2, IGF-1R(1340-1366)[1346-pTyr]amid. As to the kind of experiment: SPR (BIAcore 3000, SA sensor, 25 C): single ss-FAB hybridized on the biotinylated T0-Bi 37-mer ss-DNA linker on the surface; peptide as analyte in solution. As for the experimental part:
as §1, §2, §3

The target in test [11] is T3, IGF-1R(1340-1366)amid. Described as above. As for the experimental part:
as §1, §2, §3

Test [12] concerns the target T2, IGF-1R(1340-1366)[1346-pTyr]amid. As to the kind of experiment: SPR (BIAcore 3000, SA sensor, 25 C): ss-FABs hybridized on the biotinylated T0-Bi 37-mer ss-DNA linker on the surface; peptide as analyte in solution. As for the experimental part: as §1, §2, §3
Test [13] deals with T3, IGF-1R(1340-1366)amid. The description is as above. The protocol:
as §1, §2, §3

T1 sequence (P22629 37-163 limits assumed): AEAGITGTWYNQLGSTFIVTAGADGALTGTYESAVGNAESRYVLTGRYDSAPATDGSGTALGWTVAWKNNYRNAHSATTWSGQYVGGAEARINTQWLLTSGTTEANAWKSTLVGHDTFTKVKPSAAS

B1: anti-HER2 antibody 2C4-FAB′-ss-L-DNA (Fab, V domains shown)
VH: EVQLVESGGGLVQPGGSLRLSCAASGFTFTDYTMDWVRQAPGKGLEWVADVNPNSGGSIYNQRFKGRFTLSVDRSKNTLYLQMNSLRAEDTAVYYCARNLGPSFYFDYWGQGTLVTVSS
VL: DIQMTQSPSSLSASVGDRVTITCKASQDVSIGVAWYQQKPGKAPKLLIYSASYRYTGVPSRFSGSGSGTDFTLTISSLQPEDFATYYCQQYYIYPYTFGQGTKVEIKQ
modifications: cysteine of the FAB′ hinge region linked via maleimide to fluorescein-labeled ss-L-DNA oligonucleotide
notes: FAB′ of 2C4 (Pertuzumab); also called 2C4-ss-L-DNA; 2C4-75mer
For B1, in the test with streptavidin (SA), the binding result is “no binding (tested: 250 nM)”.

B2: T40 dual binding agent: ss-FAB 8.1.2 and ss-FAB 1.4.168 on the biotinylated T40-Bi 77-mer ss-DNA linker (linker 10) (bispecific antibody, V domains shown)
VH 1: EVQLQQSGPALVKPGASVKMSCKASGFTFTSYVIHWVKQKPGQGLEWIGYLNPYNDNTKYNEKFKGKATLTSDRSSSTVYMEFSSLTSEDSAVYFCARRGIYAYDHYFDYWGQGTSLTVSS
VL 1: QIVLTQSPAIMSASPGEKVTLTCSASSSVNYMYWYQQKPGSSPRLLIYDTSNLASGVPVRFSGSGSVTSYSLTISRMEAEDAATYYCQQWSTYPLTFGAGTKLELK
VH 2: QCDVKLVESGGGLVKPGGSLKLSCAASGFTFSDYPMSWVRQTPEKRLEWVATITTGGTYTYYPDSIKGRFTISRDNAKNTLYLQMGSLQSEDAAMYYCTRVKTDLWWGLAYWGQGTLVTVSA
VL 2: QLVLTQSSSASFSLGASAKLTCTLSSQHSTYTIEWYQQQPLKPPKYVMELKKDGSHTTGDGIPDRFSGSSSGADRYLSISNIQPEDESIYICGVGDTIKEQFVYVFGGGTKVTVLG
modifications: FAB′ hinge cysteine linked to ss-DNA
notes: Assembled on the SA sensor surface; also called T40-bi complex
Take B2: the Kd was 0.0125 nM in test [1]; 0.973 nM and 1 nM with IGF-1R(1340-1366)amid [2]; 0.01 nM in test [3]. For the same molecule, the t1/2 diss with IGF-1R(1340-1366)amid [2] amounted to 4.3 min.

B3: ss-FAB′ 1.4.168 (Fab, V domains shown)
VH: DVKLVESGGGLVKPGGSLKLSCAASGFTFSDYPMSWVRQTPEKRLEWVATITTGGTYTYYPDSIKGRFTISRDNAKNTLYLQMGSLQSEDAAMYYCTRVKTDLWWGLAYWGQGTLVTVSA
VL: QLVLTQSSSASFSLGASAKLTCTLSSQHSTYTIEWYQQQPLKPPKYVMELKKDGSHTTGDGIPDRFSGSSSGADRYLSISNIQPEDESIYICGVGDTIKEQFVYVFGGGTKVTVLG
modifications: cysteine of the FAB′ hinge region linked to 17mer ss-DNA comprising SEQ ID NO: 05 with fluorescein
notes: FAB′ from pepsin cleavage of murine mAb 1.4.168; also called ss-FAB 1.004.168; fluorescein-ss-FAB′ 1.4.168
Regarding B3, the Kd in test [4] is 2.14 nM and 2 nM; in the test with IGF-1R(1340-1366)amid [6], 1.1 nM and 1 nM; in [10] it was 2.59 nM and 3 nM; in the test with IGF-1R(1340-1366)amid [11], 1.35 nM and 1 nM. Besides, the koff in test [4] turned out to be 0.00419 s⁻¹; in the test with IGF-1R(1340-1366)amid [6], 0.00362 s⁻¹; in test [10] it was 0.00291 s⁻¹; in the test with IGF-1R(1340-1366)amid [11] it was 0.00326 s⁻¹. The association rate constant (kon) was found to be 1.96e+06 M⁻¹ s⁻¹ in test [4], 3.3e+06 M⁻¹ s⁻¹ in the test with IGF-1R(1340-1366)amid [6], 1.12e+06 M⁻¹ s⁻¹ in test [10] and 2.41e+06 M⁻¹ s⁻¹ with IGF-1R(1340-1366)amid [11]. Moreover, the binding result in test [5] is given as “no binding (tested: 300 nM (highest peptide step))”; in [9], “no binding (tested: 100 nM)”. In addition, the t1/2 diss with IGF-1R(1340-1366)amid [6] came to 3 min; in test [10] it was 4 min; with IGF-1R(1340-1366)amid [11] it was 4 min. Besides, the T1/2 dis in [7] and in test [8] was 3 min each time.

B4: T0 dual binding agent: ss-FAB 8.1.2 and ss-FAB 1.4.168 on the biotinylated T0-Bi 37-mer ss-DNA linker (linker 17) (bispecific antibody, V domains shown)
VH 1: EVQLQQSGPALVKPGASVKMSCKASGFTFTSYVIHWVKQKPGQGLEWIGYLNPYNDNTKYNEKFKGKATLTSDRSSSTVYMEFSSLTSEDSAVYFCARRGIYAYDHYFDYWGQGTSLTVSS
VL 1: QIVLTQSPAIMSASPGEKVTLTCSASSSVNYMYWYQQKPGSSPRLLIYDTSNLASGVPVRFSGSGSVTSYSLTISRMEAEDAATYYCQQWSTYPLTFGAGTKLELK
VH 2: QCDVKLVESGGGLVKPGGSLKLSCAASGFTFSDYPMSWVRQTPEKRLEWVATITTGGTYTYYPDSIKGRFTISRDNAKNTLYLQMGSLQSEDAAMYYCTRVKTDLWWGLAYWGQGTLVTVSA
VL 2: QLVLTQSSSASFSLGASAKLTCTLSSQHSTYTIEWYQQQPLKPPKYVMELKKDGSHTTGDGIPDRFSGSSSGADRYLSISNIQPEDESIYICGVGDTIKEQFVYVFGGGTKVTVLG
modifications: FAB′ hinge cysteine linked to ss-DNA
For B4, the Kd in test [3] was 0.03 nM; in test [12], 0.0344 nM; in the test with IGF-1R(1340-1366)amid [13] it was 1.2 nM and 1 nM. The molecule also gave a t1/2 diss with IGF-1R(1340-1366)amid [13] of 5 min.
